In patent US10822593B2, “Alcohol dehydrogenase mutant and application thereof in synthesis of diaryl chiral alcohols” (priority 2018, dated 2020):

Assays:
Format in all cases: biochemical
[1] = test system: O=C(c1ccc(Cl)cc1)c1ccccn1; assay: Kinetic analysis, reduction of CPMK by mutant M5; details: other: substrate CPMK, coenzyme NADPH, pH 7.0, 30° C.
Experimental: In an embodiment of the present disclosure, the mutant includes the substitution of glycine for serine at position 196 of the alcohol dehydrogenase with the amino acid sequence shown in SEQ ID No. 2, and the substitution of valine for phenylalanine at position 161, which is named M5.
(§1) Adopting a total reaction system of 200 μL, including: 1.0 mM NADPH, 1.0 mM substrate CPMK and sodium phosphate buffer (PBS, 100 mM, pH 7.0), fully and evenly mixing, maintaining at 30° C. for 2 min, adding an appropriate amount of enzyme solution, and detecting the change in light absorption at 340 nm.
(§2) The enzyme activity was calculated by the following formula: […]
(§3) in the formula, EW is the change in absorbance at 340 nm in 1 min; V is the volume of a reaction solution in mL; 6220 is the molar extinction coefficient of NADPH in L/(mol·cm); and 1 is the optical path distance in cm. One activity unit (U) corresponds to the amount of enzyme required to catalyze the oxidation of 1 μmol NADPH per minute under the above conditions.
(§4) A column used for purification was a nickel affinity column HisTrap FF crude, and purification was achieved through affinity chromatography using a histidine tag on recombinant protein. The nickel column was equilibrated with a solution A first, a crude enzyme solution was loaded, a penetrating peak was further eluted off using the solution A, and after equilibrium, a solution B (20 mM sodium phosphate, 500 mM NaCl, and 1000 mM imidazole, pH 7.4) was used for gradient elution to elute off the recombinant protein bound to the nickel column, so as to obtain the recombinant alcohol dehydrogenase mutant. The purified protein was subjected to activity measurement (CPMK as substrate, and NADPH as coenzyme) and SDS-PAGE analysis. […] The purified alcohol dehydrogenase protein was then replaced into a Tris-HCl (100 mM, pH 7.0) buffer using a Hi Trap Desalting column (GE Healthcare).
(§5) The activity of KpADH at different substrate concentrations and coenzyme concentrations was determined, and a double reciprocal curve was made based on the reciprocal of activity and substrate concentration to calculate kinetic parameters.

[2] = test system: O=C(c1ccc(Cl)cc1)c1ccccn1; assay: Kinetic analysis, reduction of CPMK by wild type KpADH; details: other: substrate CPMK, coenzyme NADPH, pH 7.0, 30° C.
Experimental: as §1, §2, §3, §4, §5

[3] = test system: O=C(c1ccc(Cl)cc1)c1ccccn1; assay: Kinetic analysis, reduction of CPMK by mutant M4; details: other: substrate CPMK, coenzyme NADPH, pH 7.0, 30° C.
Experimental: In an embodiment of the present disclosure, the mutant includes the substitution of glycine for serine at position 196 of the alcohol dehydrogenase with the amino acid sequence shown in SEQ ID No. 2, which is named M4.
as §1, §2, §3, §4, §5

[4] = target: alcohol dehydrogenase KpADH, wild type, SEQ ID No. 2 (Vanderwaltozyma polyspora, UniProt A7TM80); assay: Kinetic analysis, reduction of CPMK by wild type KpADH; details: substrate CPMK, coenzyme NADPH, pH 7.0, 30° C.
Experimental: as §1, §2, §3, §4, §5

[5] = test system: O=C(c1ccc(Cl)cc1)c1ccccn1; assay: Kinetic analysis, reduction of CPMK by mutant M3; details: other: substrate CPMK, coenzyme NADPH, pH 7.0, 30° C.
Experimental: In an embodiment of the present disclosure, the mutant includes the substitution of proline for serine at position 196 of the alcohol dehydrogenase with the amino acid sequence shown in SEQ ID No. 2, which is named M3.
as §1, §2, §3, §4, §5

[6] = test system: O=C(c1ccc(Cl)cc1)c1ccccn1; assay: Kinetic analysis, reduction of CPMK by mutant M1; details: other: substrate CPMK, coenzyme NADPH, pH 7.0, 30° C.
Experimental: In an embodiment of the present disclosure, the mutant includes the substitution of valine for serine at position 196 of the alcohol dehydrogenase with the amino acid sequence shown in SEQ ID No. 2, which is named M1.
as §1, §2, §3, §4, §5

[7] = test system: O=C(c1ccc(Cl)cc1)c1ccccn1; assay: Kinetic analysis, reduction of CPMK by mutant M2; details: other: substrate CPMK, coenzyme NADPH, pH 7.0, 30° C.
Experimental: In an embodiment of the present disclosure, the mutant includes the substitution of tryptophan for serine at position 196 of the alcohol dehydrogenase with the amino acid sequence shown in SEQ ID No. 2, which is named M2.
as §1, §2, §3, §4, §5

## alcohol dehydrogenase KpADH (SEQ ID No. 2) mutant M5, S196G/F161V (Vanderwaltozyma polyspora DSM 70294; F161V/S196G)
[1]
  Km: 690 µM
  Vmax: 17.7 µmol/min/mg
  kcat: 11.8 s⁻¹
  kcat/Km: 17100 M⁻¹ s⁻¹

## alcohol dehydrogenase KpADH, wild type, SEQ ID No. 2 (Vanderwaltozyma polyspora DSM 70294)
[2]
  Km: 410 µM
  Vmax: 17.9 µmol/min/mg
  kcat: 11.8 s⁻¹
  kcat/Km: 28900 M⁻¹ s⁻¹

## alcohol dehydrogenase KpADH (SEQ ID No. 2) mutant M4, S196G (Vanderwaltozyma polyspora DSM 70294; S196G)
[3]
  Km: 730 µM
  Vmax: 26.5 µmol/min/mg
  kcat: 17.6 s⁻¹
  kcat/Km: 24100 M⁻¹ s⁻¹

## O=C(c1ccc(Cl)cc1)c1ccccn1 [CPMK, (4-chlorophenyl)-(pyridin-2-yl)-methanone]
[4]
  Kcat/Km: 28900 M⁻¹ s⁻¹

## alcohol dehydrogenase KpADH (SEQ ID No. 2) mutant M3, S196P (Vanderwaltozyma polyspora DSM 70294; S196P)
[5]
  Km: 604 µM
  Vmax: 22.3 µmol/min/mg
  kcat: 14.8 s⁻¹
  kcat/Km: 24600 M⁻¹ s⁻¹

## alcohol dehydrogenase KpADH (SEQ ID No. 2) mutant M1, S196V (Vanderwaltozyma polyspora DSM 70294; S196V)
[6]
  Km: 720 µM
  Vmax: 21.3 µmol/min/mg
  kcat: 17 s⁻¹
  kcat/Km: 23600 M⁻¹ s⁻¹

## alcohol dehydrogenase KpADH (SEQ ID No. 2) mutant M2, S196W (Vanderwaltozyma polyspora DSM 70294; S196W)
[7]
  Km: 702 µM
  Vmax: 21.3 µmol/min/mg
  kcat: 14.2 s⁻¹
  kcat/Km: 20300 M⁻¹ s⁻¹
